Test results taken from patent US20240026019A1 (Innovent, published 2024).

Assays:
[1] = biological target: T1, TNFR2 on human K562 chronic myeloid leukemia cells and on primary human Treg cells (human, UniProt P20333 23-461); assay: flow cytometry on human K562 CML cells, MFI(FL2); unit taken from the axis Conc log(nM)
T1 construct: whole, on cells; also called K562 cells
T1 sequence (looked up): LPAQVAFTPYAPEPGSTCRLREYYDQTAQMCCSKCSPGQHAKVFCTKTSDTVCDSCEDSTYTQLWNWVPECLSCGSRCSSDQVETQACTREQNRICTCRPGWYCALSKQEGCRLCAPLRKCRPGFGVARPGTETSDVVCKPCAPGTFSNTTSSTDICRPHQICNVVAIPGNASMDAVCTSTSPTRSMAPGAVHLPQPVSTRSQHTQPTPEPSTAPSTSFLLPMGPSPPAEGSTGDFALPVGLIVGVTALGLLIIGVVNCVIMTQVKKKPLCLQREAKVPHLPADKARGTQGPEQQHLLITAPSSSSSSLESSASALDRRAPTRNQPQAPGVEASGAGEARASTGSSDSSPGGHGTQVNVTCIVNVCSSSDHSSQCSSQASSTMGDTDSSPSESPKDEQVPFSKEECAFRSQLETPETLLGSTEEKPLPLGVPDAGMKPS
Experimental: (§1) Assay steps: The mixture was centrifuged at 400 g for 5 min, and the cell medium was removed. K562 or Treg cells were resuspended in PBS. After counting, the cells were adjusted to a density of 2×10⁶/mL, and the cell suspension was added to a U-bottom 96-well plate at 100 μL/well. The test antibody was added, subjected to a three-fold gradient dilution, and left to stand on ice for 30 min. The mixture was centrifuged at 300 g for 5 min, and the supernatant was removed. The cells were washed once with PBS. The mixture was centrifuged at 300 g for 5 min, and PBS was removed. 100 μL of PE-anti-human Fc antibody (SOUTHERN BIOTECH, 2040-09) diluted at a ratio of 1:200 was added to each well. The mixture was incubated on ice for 30 min in the dark. The mixture was centrifuged at 400 g for 5 min, and the supernatant was removed. The cells were washed twice with PBS. The cells were resuspended in 100 μL of PBS and assayed by using a flow cytometer (BD, ACCURIC6 plus).

[2] = biological target: T1, TNFR2 on human K562 chronic myeloid …; assay: flow cytometry on primary human Treg cells, MFI(FL2); unit taken from the axis Conc log(nM)
Experimental: Tregs were prepared as follows: Human PBMC cells ([…], PB005F) were thawed, CD4⁺ CD25⁺ CD127^low cells were sorted by flow cytometry, and Treg cells were isolated. According to CD4⁺:anti-CD3/CD28 Beads=1:1, Dynabeads Human T-Activator CD3/CD28 (Gibco, 11131D) was added, followed by 10 ng/mL recombinant IL2, and the cells were stimulated for 7 days.
as §1

[3] = biological target: T2, human TNFR2 overexpressed on CHO-S cells (CHOS-hTNFR2) (human, UniProt P20333 23-461); assay: flow cytometry on CHO-S cells overexpressing human TNFR2 (positive control beside the hybridoma antibodies), MFI
T2 construct: also called hTNFR2 CHO-S; human TNFR2 molecule overexpressed on CHO-S cells
T2 sequence: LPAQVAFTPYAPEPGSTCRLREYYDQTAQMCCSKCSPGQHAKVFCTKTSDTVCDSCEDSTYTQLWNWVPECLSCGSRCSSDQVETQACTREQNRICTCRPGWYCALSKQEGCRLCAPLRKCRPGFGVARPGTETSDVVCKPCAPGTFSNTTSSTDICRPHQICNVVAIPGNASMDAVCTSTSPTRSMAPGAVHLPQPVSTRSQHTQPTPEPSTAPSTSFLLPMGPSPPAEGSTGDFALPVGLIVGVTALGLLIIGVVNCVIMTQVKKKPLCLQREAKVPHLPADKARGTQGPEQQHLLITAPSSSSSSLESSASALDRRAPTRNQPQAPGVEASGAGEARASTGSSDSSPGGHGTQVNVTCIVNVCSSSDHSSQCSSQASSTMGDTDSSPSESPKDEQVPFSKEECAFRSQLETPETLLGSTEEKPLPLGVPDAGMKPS
Experimental: In the study, the binding of the hybridoma antibodies (3C4, 69B1, and 72G8) of the present invention, after being diluted in a gradient, to a stable CHO-S cell strain overexpressing human TNFR2 on the surface was assayed by using a flow cytometer.
CHOS-hTNFR2 cells or CHOS-cTNFR2 cells were counted and diluted to 2×10⁶ cells/mL, and added to a U-bottom 96-well plate at 100 μL/well. The mixture was centrifuged at 300 g for 5 min, and the cell medium was removed. The dilutions of the samples (the hybridoma antibodies 3C4, 69B1, and 72G8 and the positive control antibody OPI) (the antibodies were subjected to a two-fold serial dilution in PBS from the maximum antibody concentration of 300 nM) were added to the U-plate, and the cells were resuspended at 100 μL/well and left to stand on ice for 30 min. The suspension was centrifuged at 400 g for 5 min, and the supernatant was removed. The cells were washed twice with PBS. The mixture was centrifuged at 300 g for 5 min, and PBS was removed. […] The mixture was centrifuged at 400 g for 5 min, and the supernatant was removed. The cells were washed 3 times with PBS. The cells were resuspended in 200 μL of 1×PBS and assayed by FACS.

[4] = biological target: T2, human TNFR2 overexpressed on CHO-S …; assay: flow cytometry on CHO-S cells overexpressing human TNFR2 (chimeric antibody 69B1 beside the humanized antibodies), MFI-FL2A; unit taken from the axis Conc log(nM)
Experimental: In the study, the binding of the antibodies, after being diluted in a gradient, to a stable CHO-S strain line overexpressing human TNFR2 on the surface was assayed by using a flow cytometer.
CHOS-hTNFR2 cells were counted and diluted to 2×10⁶ cells/mL, and added to a U-bottom 96-well plate at 100 μL/well. The mixture was centrifuged at 300 g for 5 min, and the cell medium was removed. Samples (the humanized antibodies hz3C4.7, hz69B1.5, hz69B1.6, hz69B1.11 and hz69B1.20, the chimeric antibody 69B1, and the positive control antibody OPI) (the antibodies were subjected to a three-fold dilution in PBS from the maximum antibody concentration of 300 nM) were added to the U-plate, and the cells were resuspended at 100 μL/well and left to stand on ice for 30 min. The suspension was centrifuged at 400 g for 5 min, and the supernatant was removed. The cells were washed twice with PBS. The mixture was centrifuged at 300 g for 5 min, and PBS was removed. 100 μL of anti-human Fc PE-labeled secondary antibody (SoutherBiotech; 2040-09) (diluted at a 1:100 ratio in PBS) was added to each well and incubated on ice for 30 min in the dark. The mixture was centrifuged at 400 g for 5 min, and the supernatant was removed. The cells were washed 3 times with PBS. The cells were resuspended in 200 μL of 1×PBS and assayed by FACS.

Row | Binder | EC50 [1] | EC50 [2] | EC50 (read off the curve) [3] | EC50 [4]
1 | positive control antibody OPI (humanized antibody SBT-002e in WO 2017083525) (antibody, V domains shown, also called Benchmark OPI) VH: QVTLKESGPALVKPTQTLTLTCTFSGFSLSTSGMGVGWIRQPPGKALEWLAHIWWDDDKFYNPSLKSRLTISKDTSKNQVVLTMTNMDPVDTATYYCARLTGTRYFDYWGQGTTVTVSS VL: DVQMTQSPSSLSASVGDRVTITCKASQDINKFIAWYQQKPGKAPKLLIHYTSTLQPGIPSRFSGSGSGRDYTFTISSLQPEDIATYYCLQYGNLWTFGGGTKVEIK | 0.0916 nM | 0.0738 nM | ~2 nM | 
2 | chimeric antibody 69B1 (antibody, human IgG1, kappa, V domains shown) VH: QIQLVQSGPELKKPGETVKISCKASGYTFTDYSMNWVKQAPGKGLKWMGWLNTETGEPIYADDFKGRFVFSLETSASTAYLEINNLNDEDTATYFCAREAIYYGTSYVLDYWGQGTSVTVSS VL: DIVLTQSPASLAVSLGQRATISCRASESVEYYGTNFMQWYQQKPGQPPKLLIYSASNVESGVPARFSGSGSGTDFSLNIHPVEEDDIAVYFCQQSRKDPSTFGEGTNLEIKR |  |  |  | 0.489 nM
